The data set “crystal structure” deals with the molecule itself. Put plainly: crystal structure.
A further data set deals with T1, NocΔCTD-His6 (Bacillus subtilis, UniProt P37524 1-242).
T1 sequence: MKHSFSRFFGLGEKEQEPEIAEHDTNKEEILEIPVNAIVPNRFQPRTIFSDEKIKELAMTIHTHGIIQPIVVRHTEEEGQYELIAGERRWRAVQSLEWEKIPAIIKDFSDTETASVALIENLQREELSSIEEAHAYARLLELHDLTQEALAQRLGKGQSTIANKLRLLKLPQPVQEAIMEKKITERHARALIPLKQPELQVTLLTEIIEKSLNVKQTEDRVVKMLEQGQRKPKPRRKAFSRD
Kind of data set: X-ray crystallography.

B1: Bacillus subtilis NocΔCTD-His6 (domain or fragment, UniProt P37524 1-242, looked up)
chain: MKHSFSRFFGLGEKEQEPEIAEHDTNKEEILEIPVNAIVPNRFQPRTIFSDEKIKELAMTIHTHGIIQPIVVRHTEEEGQYELIAGERRWRAVQSLEWEKIPAIIKDFSDTETASVALIENLQREELSSIEEAHAYARLLELHDLTQEALAQRLGKGQSTIANKLRLLKLPQPVQEAIMEKKITERHARALIPLKQPELQVTLLTEIIEKSLNVKQTEDRVVKMLEQGQRKPKPRRKAFSRD
One may read the stoichiometry N as the number of molecules, sites or subunits per partner or assembly. As for B1, in “crystal structure”, the “stoichiometry N” value was 2.

B2: 16-bp NBS (dsDNA)
DNA 1: TATTTCCCGGGAAATA
DNA 2: TATTTCCCGGGAAATA
As for B2, the binding result with NocΔCTD-His6 was “binds”.

The record behind these values is paper doi:10.1101/2022.02.28.481274 (bioRxiv, 2022).
